Test results published in the supplement of paper PMC9732359.
± gives the uncertainty stated by the source.

Assay: protein stability index of a GFP-peptide fusion (yeast GPS) (PSI 1-4); higher = more stable; sorted into four equal gates, so the index is relative within each strain
How it was run: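 Sequencing reads from sorted gates were used to score each peptide. The library consisted of tiled 17-residue yeast protein peptides fused downstream of GFP on a Cherry-expressing plasmid, pooled and carried in yeast. Mid-log cultures in leucine-free medium were split into four equal gates by GFP/Cherry ratio, and each gate's plasmids were PCR-amplified and Illumina-sequenced. The protein stability index adds up, over all gates, the read frequency multiplied by the gate number.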

Row | Sequence | protein stability index (doa10∆) | protein stability index (pdr5∆) | protein stability index (san1∆) | protein stability index (ubr1∆)
1 | ISNYNTKYTDDMATGSN [SRB8] | 3.04 ± 0.1 | 2.52 ± 0.11 | 3.21 ± 0.058 | 2.94 ± 0.085
2 | AIVFEEIKNWISDIPYV [YMR129W/POM152] | 1.36 ± 0.043 | 1.42 ± 0.045 | 1.36 ± 0.075 | 1.72 ± 0.054
3 | AGKFELLDRILPKLKAT [SNF2] | 1.18 ± 0.17 | 2.05 ± 0.14 | 1.77 ± 0.19 | 1.95 ± 0.17
4 | SAGLFGSKPAGGTSLFG [YGL172W/NUP49] | 2.6 ± 0.081 | 2.9 ± 0.1 | 2.27 ± 0.098 | 2.66 ± 0.047
5 | RRRDGVFLYFEDNAGVI [RPL23A] | 2.68 ± 0.13 | 2.83 ± 0.069 | 2.37 ± 0.11 | 2.9 ± 0.056
6 | LKSLYSFFNISPDAPKE [SIN4] | 2.32 ± 0.093 | 1.38 ± 0.048 | 1.43 ± 0.079 | 1.84 ± 0.049
7 | ITDKTIESIVNLAPKLR [GRR1] | 2.81 ± 0.081 | 2.27 ± 0.059 | 1.83 ± 0.086 | 2.76 ± 0.037
8 | IEETSAAIKDLDDFGEE [RRP43] | 2.85 ± 0.19 | – | – | –
9 | NFNSVNDANITSNKEGF [SSN2] | 3 ± 0.11 | 3.25 ± 0.084 | 3.32 ± 0.054 | 3.12 ± 0.065
10 | NLRLLVEENRVRYTTSV [DLS1] | 2.33 ± 0.071 | 2.65 ± 0.056 | 2.08 ± 0.079 | 2.43 ± 0.048
11 | VPHSHPSDMVIPDHLAE [SNF12] | 2.04 ± 0.047 | 2.39 ± 0.047 | 2.22 ± 0.068 | 2.31 ± 0.03
12 | GIDPDETVPDNVKTSVS [RPO31] | 2.83 ± 0.22 | – | – | –
13 | EIDVENHDRINISNNLQ [RPN8] | 3.21 ± 0.061 | 3.26 ± 0.082 | 3.32 ± 0.043 | 3.21 ± 0.054
14 | LKTKLLEEVEGSCTGKF [RPB7] | 3.53 ± 0.29 | 2.84 ± 0.22 | – | –
15 | EIGITQQRIVSAYEASM [RRP4] | 3.04 ± 0.098 | 2.98 ± 0.081 | 2.75 ± 0.12 | 2.85 ± 0.065
16 | EINLSKIFQTTPEKDLF [YCS4] | 2.72 ± 0.11 | 2.29 ± 0.075 | 1.5 ± 0.091 | 2.7 ± 0.055
17 | CEIHPSMILGVAASIIP [RPB2] | 1.35 ± 0.11 | 1.42 ± 0.1 | 1.14 ± 0.15 | 1.35 ± 0.16
18 | DKRIVISIDSWPTTHKY [DIS3] | 1.92 ± 0.065 | 1.52 ± 0.11 | 1.99 ± 0.16 | 2.06 ± 0.087
19 | TLVNKSTGLKNASDALK [RPS1B] | 2.87 ± 0.11 | 3.2 ± 0.11 | 3.4 ± 0.092 | 3.24 ± 0.075
20 | NRERFISKLFLRGDSVI [SMD2] | 2.91 ± 0.076 | 1.65 ± 0.089 | 1.51 ± 0.14 | 3.03 ± 0.15
21 | RSWTLTSEMKVLSIPPA [YGL100W/SEH1] | 2.13 ± 0.054 | 2.18 ± 0.069 | 2.37 ± 0.064 | 2.1 ± 0.072
22 | FNSVVNLSRYPKSGIDI [MTR3] | 2.66 ± 0.055 | 2.96 ± 0.086 | 2.82 ± 0.079 | 3.03 ± 0.075
23 | SEYNFLEGSVSLPRFSK [DIS3] | 3.1 ± 0.078 | 3.18 ± 0.068 | 3.11 ± 0.05 | 3.2 ± 0.05
24 | FSKIAEYYRIQKQLPQK [ESC2] | 3.18 ± 0.16 | 2.99 ± 0.15 | 3.26 ± 0.088 | 3.19 ± 0.17
25 | EQTVEYMVSRAIRDGVI [RPN3] | 3.47 ± 0.15 | 3.58 ± 0.1 | 2.64 ± 0.17 | 3.45 ± 0.049
26 | SLLERHIPRLIPKQLLD [YJL039C/NUP192] | 2.11 ± 0.096 | 1.38 ± 0.071 | 1.23 ± 0.095 | 1.45 ± 0.076
27 | IPAWFLNRQNDITDGKD [RPS18A] | 2.91 ± 0.17 | 3.22 ± 0.15 | 2.76 ± 0.2 | 2.87 ± 0.09
28 | KELDALQEKEQLYFKKK [ISW2] | 3.22 ± 0.11 | 3.15 ± 0.14 | 3.24 ± 0.25 | 3.55 ± 0.11
